Experimental data from US10456446B2, “Use of human small leucine zipper protein in osteogenesis procedure” (Korea University Research and Business Foundation, priority 2013, dated 2019).

Assays:
HDAC3 = biological target: T1, HDAC3 (Homo sapiens, UniProt O15379); experiment: HDAC3 ubiquitination, GST pull-down with Ha-UB in 293T cells; assay type: cell-based; conditions: ligand treated (10 nM RZD, 24 hours)
T1 construct: expressed in transfected cells; host or cells: 293T
Description: Therefore, in order to understand a regulation mechanism of sLZIP in the PPARγ2 transcriptional activity by binding to the FABP4 promoter region, an effect of sLZIP on the interaction between PPARγ2 and HDAC3 was examined. For this purpose, 293T cells were transfected with GST-HDAC3, Myc-PPARγ2 and Flag-sLZIP, and were treated or not treated with 10 nM of RZD for 24 hours. Cell lysates were subjected to GST pull-down analysis using a glutathione 4B bead, and a protein complex was analyzed in SDS-PAGE, and then immunoblotted with anti-GST, anti-Myc and anti-Flag antibodies (FIG. 6A). GST-HDAC3, GST-PPARγ2, Myc-PPARγ2, Flag-sLZIP and Ha-UB were expressed in the 293T cells, and the cells were treated with 10 nM of RZD for 24 hours. Cell lysates were subjected to GST pull-down analysis (FIG. 6B). GST-PPARγ2 and Flag-sLZIP were expressed in the 293T cells and treated with 10 nM of RZD for 24 hours. Cell lysates were subjected to GST pull-down analysis, and a protein complex was analyzed in SDS-PAGE, and then immunoblotted with anti-PGC1α, anti-GST and anti-Flag antibodies (FIG. 6C).

NCoR1 = biological target: T2, NCoR1 (Homo sapiens, UniProt O75376); experiment: Immunoprecipitation of sLZIP with anti-NCoR1 antibodies in 293T cells; assay type: binding; conditions: 10 nM RZD for 24 hours
T2 construct: endogenous in cells; host or cells: 293T
Description: 293T cells were obtained and washed with cold PBS. The cells were re-suspended in an IP lysis buffer [25 mM of Tris-HCl (pH 7.4), 150 mM of NaCl, 1 mM of EDTA, 1% NP-40 and 5% glycerol, and a protease inhibitor]. A suspension was centrifuged at 16,000×g for 20 minutes at 4° C. Supernatants were collected and incubated with 0.5 μg of appropriate antibodies and 25 μl of protein A/G-agarose or a GST Sepharose 4B bead for 24 hours at 4° C. A protein complex was centrifuged at 1,000×g with a cold IP lysis buffer for 1 minute and washed five times. The final pellet was re-suspended in 50 μl of an SDS-sample buffer containing 5% β-mercaptoethanol and heated for 10 minutes at 100° C. A protein sample was isolated in SDS-PAGE (8 to 10%) and transferred to nitrocellulose membranes. Co-precipitated proteins were detected according to western blotting using specific antibodies.
For this purpose, 293T cells were transfected with GST-PPARγ2 and Flag-sLZIP and were treated or not treated with 10 nM of RZD for 24 hours. […] A protein complex was analyzed in SDS-PAGE, and immunoblotted with anti-GST and anti-Flag antibodies. […] The cell lysates were GST pull-down analyzed (FIG. 5C). […] The cell lysates were GST pull-down analyzed (FIG. 5D). […] A protein complex was analyzed in SDS-PAGE, and then immunoblotted with anti-NCoR1 and anti-Flag antibodies (FIG. 5E). […]

PPARγ2 = biological target: T3, PPARγ2 (Homo sapiens, UniProt P37231); experiment: Fluorescence microscopy, subcellular localization with PPARγ2 in C3H10T1/2 cells; assay type: cell-based; conditions: GFP-PPARγ2 and Flag-sLZIP in C3H10T1/2 cells
T3 construct: expressed in transfected cells; host or cells: 293T
T3 sequence (P37231 1-505): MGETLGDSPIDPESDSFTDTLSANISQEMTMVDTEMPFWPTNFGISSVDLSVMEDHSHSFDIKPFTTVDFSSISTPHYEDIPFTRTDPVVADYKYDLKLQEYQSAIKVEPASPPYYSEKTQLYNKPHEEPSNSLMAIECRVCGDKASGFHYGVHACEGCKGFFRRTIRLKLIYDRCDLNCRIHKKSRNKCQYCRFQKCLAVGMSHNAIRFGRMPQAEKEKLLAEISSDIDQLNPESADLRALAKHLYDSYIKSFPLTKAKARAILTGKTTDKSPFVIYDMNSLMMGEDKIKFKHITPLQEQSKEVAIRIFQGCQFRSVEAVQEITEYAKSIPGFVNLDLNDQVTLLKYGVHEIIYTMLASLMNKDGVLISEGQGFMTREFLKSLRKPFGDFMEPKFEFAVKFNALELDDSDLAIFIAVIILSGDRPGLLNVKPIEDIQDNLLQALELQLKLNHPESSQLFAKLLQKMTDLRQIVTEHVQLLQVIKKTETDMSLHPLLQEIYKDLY
Description: C3H10T1/2 cells were transiently ci-transfected with Flag-sLZIP, GFP-PPARγ2 or GFP-sLZIP, and HDAC3 was grown on cover slip. After 24 hours, the cells were fixed with 4% paraformaldehyde for 10 minutes and permeabilized 0.2% Triton-X 100 for 5 minutes. The cells were incubated with 1% BSA for one hour, and then incubated with anti-Flag and anti-HDAC3 antibodies overnight at 4° C. The cells were washed with PBS, and then were incubated with Texas Red-labeled antibodies for 2 hours. A cover slide was washed with PBS, and mounted on and examined using a LSM 510 META confocal microscopy (Carl Zeiss, Jena, Germany).
In order to examine whether the transcriptional activity of PPARγ2 is regulated by interaction with sLZIP, interaction between sLZIP and PPARγ2 was examined. For this purpose, 293T cells were transfected with GST-sLZIP and Myc-PPARγ2. Cell lysates were obtained and GST pull-down analysis was performed using a glutathione 4B bead. A protein complex was analyzed in SDS-PAGE and then immunoblotted with specific antibodies (FIG. 2A). […] Proteins bound to the bead were analyzed in SDS-PAGE, and then immunoblotted with anti-PPARγ2 and anti-His antibodies (FIG. 2C). GFP-PPARγ2 and Flag-sLZIP constructs were expressed in C3H10T1/2 cells, and analyzed using mouse anti-Flag and Texas Red-labeled anti-mouse antibodies under a fluorescence microscope. […]

T2 sequence (O75376 whole entry): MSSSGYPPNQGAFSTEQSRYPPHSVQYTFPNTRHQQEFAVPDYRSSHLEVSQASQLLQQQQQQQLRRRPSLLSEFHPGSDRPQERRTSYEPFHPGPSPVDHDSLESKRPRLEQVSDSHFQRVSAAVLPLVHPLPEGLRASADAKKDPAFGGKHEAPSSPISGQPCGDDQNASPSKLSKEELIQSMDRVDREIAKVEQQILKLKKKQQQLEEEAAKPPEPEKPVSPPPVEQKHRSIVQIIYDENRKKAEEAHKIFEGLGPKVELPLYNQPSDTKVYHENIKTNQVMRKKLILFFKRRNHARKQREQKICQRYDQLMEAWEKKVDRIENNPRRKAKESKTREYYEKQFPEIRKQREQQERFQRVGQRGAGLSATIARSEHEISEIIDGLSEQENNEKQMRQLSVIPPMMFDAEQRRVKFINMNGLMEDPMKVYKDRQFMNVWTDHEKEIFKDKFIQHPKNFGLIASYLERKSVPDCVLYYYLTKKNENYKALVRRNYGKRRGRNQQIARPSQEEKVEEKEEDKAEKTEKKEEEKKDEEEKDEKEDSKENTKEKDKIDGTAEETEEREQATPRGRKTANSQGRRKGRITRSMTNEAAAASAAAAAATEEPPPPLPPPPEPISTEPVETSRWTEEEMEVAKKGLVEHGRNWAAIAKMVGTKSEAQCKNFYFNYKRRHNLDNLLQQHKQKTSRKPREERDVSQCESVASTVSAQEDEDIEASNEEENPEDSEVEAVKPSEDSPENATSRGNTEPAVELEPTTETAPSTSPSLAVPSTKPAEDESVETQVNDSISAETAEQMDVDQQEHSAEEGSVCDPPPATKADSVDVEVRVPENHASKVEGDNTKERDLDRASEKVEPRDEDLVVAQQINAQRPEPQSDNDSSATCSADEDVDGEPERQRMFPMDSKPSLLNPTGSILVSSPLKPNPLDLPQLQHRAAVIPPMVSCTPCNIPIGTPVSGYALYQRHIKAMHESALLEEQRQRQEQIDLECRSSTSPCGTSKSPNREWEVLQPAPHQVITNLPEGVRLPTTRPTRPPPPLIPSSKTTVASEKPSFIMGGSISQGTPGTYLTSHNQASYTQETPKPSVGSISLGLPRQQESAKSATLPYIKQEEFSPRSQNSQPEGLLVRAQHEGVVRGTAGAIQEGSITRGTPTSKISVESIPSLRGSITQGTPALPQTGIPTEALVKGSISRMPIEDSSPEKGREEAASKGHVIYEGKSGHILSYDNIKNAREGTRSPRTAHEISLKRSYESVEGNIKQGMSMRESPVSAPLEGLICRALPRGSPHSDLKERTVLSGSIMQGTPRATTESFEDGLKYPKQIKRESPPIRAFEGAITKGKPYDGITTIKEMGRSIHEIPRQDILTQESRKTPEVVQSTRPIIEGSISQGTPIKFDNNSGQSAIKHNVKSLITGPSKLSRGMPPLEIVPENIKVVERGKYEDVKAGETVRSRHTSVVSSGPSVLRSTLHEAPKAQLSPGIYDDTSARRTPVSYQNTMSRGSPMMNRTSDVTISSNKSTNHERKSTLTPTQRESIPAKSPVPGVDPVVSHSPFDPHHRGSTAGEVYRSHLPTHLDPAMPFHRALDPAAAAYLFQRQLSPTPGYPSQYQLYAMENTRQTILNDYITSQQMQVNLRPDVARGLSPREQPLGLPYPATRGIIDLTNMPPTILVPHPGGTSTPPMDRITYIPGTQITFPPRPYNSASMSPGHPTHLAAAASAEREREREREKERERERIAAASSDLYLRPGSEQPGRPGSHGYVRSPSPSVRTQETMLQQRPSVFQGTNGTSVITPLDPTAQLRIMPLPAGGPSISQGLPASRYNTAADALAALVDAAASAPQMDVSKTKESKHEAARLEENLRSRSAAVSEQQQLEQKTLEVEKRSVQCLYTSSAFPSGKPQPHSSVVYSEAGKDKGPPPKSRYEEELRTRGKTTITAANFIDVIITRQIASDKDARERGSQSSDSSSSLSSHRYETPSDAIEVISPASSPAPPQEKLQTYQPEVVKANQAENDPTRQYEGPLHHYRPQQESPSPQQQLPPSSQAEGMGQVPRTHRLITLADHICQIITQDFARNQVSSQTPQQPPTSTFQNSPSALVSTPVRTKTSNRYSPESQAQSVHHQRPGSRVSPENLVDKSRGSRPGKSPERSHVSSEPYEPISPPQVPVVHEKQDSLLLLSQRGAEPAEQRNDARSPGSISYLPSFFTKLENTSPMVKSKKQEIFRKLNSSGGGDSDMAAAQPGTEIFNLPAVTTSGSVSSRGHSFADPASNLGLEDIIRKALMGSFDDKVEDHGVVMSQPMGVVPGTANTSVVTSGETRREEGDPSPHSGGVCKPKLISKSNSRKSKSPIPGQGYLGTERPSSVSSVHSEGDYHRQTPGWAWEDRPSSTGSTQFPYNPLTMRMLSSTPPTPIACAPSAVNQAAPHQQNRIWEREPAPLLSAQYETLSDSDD
T1 sequence (O15379 whole entry, species assumed): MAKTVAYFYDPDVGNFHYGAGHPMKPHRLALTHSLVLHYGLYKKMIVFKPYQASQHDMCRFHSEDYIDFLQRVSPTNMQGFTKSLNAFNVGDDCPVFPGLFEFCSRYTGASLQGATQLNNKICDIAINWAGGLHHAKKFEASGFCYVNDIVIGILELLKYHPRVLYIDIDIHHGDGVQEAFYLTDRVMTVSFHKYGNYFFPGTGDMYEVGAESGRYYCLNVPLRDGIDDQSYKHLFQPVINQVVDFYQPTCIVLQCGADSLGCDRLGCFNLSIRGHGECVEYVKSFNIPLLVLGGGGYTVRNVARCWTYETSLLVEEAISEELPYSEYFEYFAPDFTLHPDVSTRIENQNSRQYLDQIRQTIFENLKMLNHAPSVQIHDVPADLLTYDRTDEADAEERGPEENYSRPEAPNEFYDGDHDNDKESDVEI

HDAC3 ubiquitination (HDAC3): inhibited HDAC3 ubiquitination
interaction with NCoR1 (NCoR1): slightly dissociated from sLZIP
B1: sLZIP: human small leucine-zipper protein, isoform of LZIP, 354 amino acids, no transmembrane domain, GenBank FJ263669, SEQ ID NO: 1 (protein, listed as Homo sapiens)
chain: MELELDAGDQDLLAFLLEESGDLGTAPDEAVRAPLDWALPLSEVPSDWEVDDLLCSLLSPPASLNILSSSNPCLVHHDHTYSLPRETVSMDLESESCRKEGTQMTPQHMEELAEQEIARLVLTDEEKSLLEKEGLILPETLPLTKTEEQILKRVRRKIRNKRSAQESRRKKKVYVGGLESRVLKYTAQNMELQNKVQLLEEQNLSLLDQLRKLQAMVIEISNKTSSSSMYSSDTRGSLPAEHGVLSRQLRALPSEDPYQLELPALQSEVPKDSTHQWLDGSDCVLQAPGNTSCLLHYMPQAPSAEPPLEWPFPDLFSEPLCRGPILPLQANLTRKGGWLPTGSPSVILQDRYSG
subcellular localization of sLZIP and PPARγ2 (PPARγ2): localized in the nucleus together with PPARγ2
